Assays:
[1] = system: Collagenase Type I (Clostridium histolyticum); assay: In vitro degradation of peptide-PCL samples with collagenase; assay type: in vitro ADME; conditions: 37°C, mean ± SD; for Mass loss in collagenase: 2 mg/mL collagenase in ZB, 21 days, washed, lyophilized, weighed, n = 4; for Cumulative Cy3 release / Cumulative Cy3 release as % of the total Cy3 in the sample: 10 mm solvent-cast disks, 2 mg/mL collagenase in 1X ZB, 5% CO2, 21 days, fluorescence ex 550/em 580 nm, n = 6
Description: (§1) Samples were pinned to silicone elastomer‐coated 24‐well plates using 0.1 mm dissection pins. The degradation behavior of the samples in the presence of collagenase was assessed by immersing pinned samples in 2 mg/mL collagenase in 1X Zymogram Developing Buffer (ZB). Solutions (1 mL) were collected and changed after the first day of incubation then after every 3–4 days. Samples were placed in an incubator (37°C, 5% CO2) for up to 21 days. Samples were also exposed to ZB as a baseline control.
(§2) Samples were weighed before and after 21 days of incubation with ZB or collagenase. After the 21‐day incubation period, samples were collected and washed three times with ultrapure water to remove residual enzymes or salts. Following washing, samples were lyophilized and subsequently weighed to determine the final mass. Percent mass loss was calculated based on the difference between initial and final masses.

[2] = assay type: in vitro ADME
Description: as §1, §2

multiple cell types = conditions: prior peptide screening methods; cited from earlier work
Excerpt: We also included a scrambled version of Fast (LTRLMEKRRKV; ScrFast) in which the positions of uncharged amino acids (L, M, V) were exchanged with the charged amino acids (E, K, R). We quantified degradation of these four peptides with different mac ...

| Substance | Mass loss in collagenase [1] | Cumulative Cy3 release [1] [nmol] | Cumulative Cy3 release as % of the total Cy3 in the sample [1] | Mass loss in ZB [2] | Peptide degradation behavior in prior peptide screening (multiple cell types) |
| --- | --- | --- | --- | --- | --- |
| CK(Cy3)LTRLMEKRRKVC [ScrFast‐PCL, linear PCL‐PEG‐peptide‐PEG‐PCL conjugate of Cy3‐modified ScrFast; tested as solvent‐cast disks with RGDS‐PCL] | 18.9% ± 3.8% | 8.70 ± 0.92 | 11.31% ± 1.01% | 15.2% ± 7.8% | – |
| PPDKTSPEPA [Control] | – | – | – | – | negligible degradation behavior |
| CK(Cy3)KRVKRRL↓LMETC [Fast‐PCL, linear PCL‐PEG‐peptide‐PEG‐PCL conjugate of Cy3‐modified Fast with maleimide‐functionalized PCL (25 kDa) / PEG (5 kDa); tested as solvent‐cast disks with RGDS‐PCL] | 22.1% ± 1.2% | 20.38 ± 2.17 | 25.77% ± 3.70% | 16.5% ± 1.6% | – |

Source: publication PMC13378486, “Design and Synthesis of Peptide‐Polyester Conjugates for Cell‐Mediated Scaffold Degradation” (Advanced Healthcare Materials, 2026)
